Experimental data from patent US20240401071A1.

Target: Rubisco activase (Arabidopsis thaliana) (UniProt P10896)
Experiment: GFP-bead immunoprecipitation of PRL-1-eGFP from Arabidopsis leaves, mass spectrometry (IPMS); interaction direct or indirect

Sequence of UniProt P10896 (P10896 59-474 limits assumed): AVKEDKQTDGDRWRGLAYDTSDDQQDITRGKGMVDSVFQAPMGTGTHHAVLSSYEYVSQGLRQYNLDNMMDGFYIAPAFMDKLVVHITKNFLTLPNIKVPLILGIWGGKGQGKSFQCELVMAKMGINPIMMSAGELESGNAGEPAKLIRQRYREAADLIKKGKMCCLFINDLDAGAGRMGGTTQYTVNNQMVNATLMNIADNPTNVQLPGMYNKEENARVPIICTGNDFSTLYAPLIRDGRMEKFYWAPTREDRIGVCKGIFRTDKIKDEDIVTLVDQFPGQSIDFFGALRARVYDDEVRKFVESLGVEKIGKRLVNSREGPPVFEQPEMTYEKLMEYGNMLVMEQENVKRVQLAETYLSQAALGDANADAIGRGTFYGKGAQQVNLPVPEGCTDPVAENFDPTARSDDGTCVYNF

fold abundance in the dark versus light (co-precipitated protein): 4 fold
Substance: PRL-1-eGFP (C-terminal GFP fusion with PRL-1, ribulose bisphosphate carboxylase/oxygenase large subunit-related, Potri.012G062600)
